Substitutions are numbered along the chain they refer to.
B1: 27B3 (VHH)
VHH: EVQLVESGGGLVQAGGSLTLSCTASETTVRIRTMAWYRQPPGNQREWVATIGSNGFATYPDSVKGRFTISRDNAKNTVYLQMNSLKPEDTAVYYCRDINRDIWGQGSQVTVSS
notes: C-term myc-His6 tag
B2: 27D6 (VHH)
VHH: B1 VHH
notes: C-term myc-His6 tag
B3: 30D10 (second entry, SEQ ID NO: 2204) (VHH)
VHH: B1 VHH
notes: C-term myc-His6 tag
B4: 27E5 (VHH)
VHH: B1 VHH
notes: C-term myc-His6 tag
B5: 15D10 (VHH)
VHH: EVQLVESGGGLVQPGGSLKLSCAASGFTFSSYRMYWVRQAPGKGLEWVSAIKPDGSITYYADSVKGRFTISRDNAKNTVYLQMNSLKPEDTAVYYCATDCGVPGFGWTFSSWGQGTQVTVSS
notes: C-term myc-His6 tag
B6: 13C2 (VHH)
VHH: EVQLVESGGGLVQAGGSLRLSCAASGSTFSINRMAWYRQSPGKQRELVAAVDNDDNTEYSDSVAGRFTISRDNAKNAVHLQMNSLRLEDTAVYYCNAKQLPYLQNFWGQGTQVTVSS
notes: C-term myc-His6 tag
B7: 17A6 (VHH)
VHH: EVQLVESGGGLVQPGGSLRLSCAASGFTFSSYAMSWVRQAPGKGLEWVSAISSGGGSITTYADSVKGRFTISTDNAKNTLYLQMSSLKPEDTALYYCAKARSSSSYYDFGSWGQGTQVTVSS
notes: C-term myc-His6 tag
B8: 13G71/1-124 (VHH)
VHH: EVQLVESGGGLVQAGGSLRLSCAASGRAFSSYAMGWFRQAPGKERDFVAAITSSGSTNYADSVKGRFTISRDNAKNTVYLQMNSLKPEDTAVYYCGARVNYAAYSRLEHDYHYWGQGTQVTVSS
notes: C-term myc-His6 tag
B9: 21A92/1-127 (VHH)
VHH: EVQLVESGGGQVQAGGSLRLSCTESGRAFNTRAMGWFRQAPEKEREFVAGITMSGFNTRYADSVKGRFTISRDNAKGTVYLQMSSLKPEDTAVYYCAADSITDRRSVAVAHTSYYYWGQGTQVTVSS
notes: C-term myc-His6 tag
B10: 17A3 (VHH)
VHH: EVQLVESGGGLVQAGGSLSLSCAASATLHRFDNNWYRQAPGKQRELVATIAHDGSTNYANSVKGRFTISRDNARDTLFLQMHALQPEDTAVYMCNLHRWGLNYWGQGTQVTVSS
notes: C-term myc-His6 tag
B11: 12D51/1-120 (VHH)
VHH: EVQLVESGGGLVQPGGSLRLSCAASGSAFSIKSMGWYRQAPGKQRELAAVIISSGTTTYADSVKGRFTISRDSAKNTVYLQMDSLKPEDTAVYVCNAVYVSTWGNGYDYWGQGTQVTVSS
notes: C-term myc-His6 tag
B12: 22B910/1-121 (VHH)
VHH: EVQLVESGGGLVQPGGSLPLSCAASGSIFRMNDMGWYRQAPGKQRERVATLTSAGNTNYADSVKGRFTISGDDARNTVYLQMNSLNPEDTAVYYCNAKVVVAVEGAKYDYWGQGTQVTVSS
notes: C-term myc-His6 tag
B13: 46D4 (VHH)
VHH: EVQLVESGGGLVQPGGSLRLSCAASGFIFDDYAMSWVRQAPGKGLEWVSSINWSGTHTDYAEDMKGRFTISRDNAKKTLYLQMNSLQSEDTAVYYCAKGWGPAVTSIPVATLGTQVTVSS
notes: C-term myc-His6 tag
B14: 11A101/1-120 (VHH)
VHH: EVQLVESGGGLVQAGGSLRLSCAASGRTFNAMGWFRQAPGKEREFVAAISRSPGVTYYADSVKGRFTTSRDNAKNTVYLQMNDLKPEDTAVYYCAADFYLATLAHEYDYWGQGTQVTVSS
notes: C-term myc-His6 tag
B15: 22B101/1-123 (VHH)
VHH: EVQLVESGGGLVQTGGSLRLSCAASGPTFSDYAIGWFRQAPGKEREFVAAISSSGISTIYGDSVKGRFDISRDNAKNTVYLQMNRLKPEDTAVYYCAARLFMATPNQGQYYYWGQGTQVTVSS
notes: C-term myc-His6 tag
B16: 22C712/1-123 (VHH)
VHH: EVQLVESGGGLVQAGGSLGLSCAASGRTFSNYAMGWFRQAPGKEREFVAGISWSGGHTFYADSVKGRFTISRDNTKNTVYLQMNSMRPEDTAVYYCAARLSSVAVASTRYDYWGQGTQVTVSS
notes: C-term myc-His6 tag
B17: 13F71/1-123 (VHH)
VHH: EVQLVESGGGLVQAGGSLRLSCVASGRTFSNYALAWFRQAPGKEREFVAAINWRSGGSTYYADSVKGRFTISRDNAKNTVYLQMNSLKPEDTAVYYCAADLIVATLPGEYDYWGQGTQVTVSS
notes: C-term myc-His6 tag
B18: 21A81/1-122 (VHH)
VHH: EVQLVESGGGLAQAGGSLRLSCAVFGRSRYGMAWFRRAPGKEREFVAGIAWNGASIGSADSVRGRFTISRDNSENTVYFEMGSLKPEDTAVYYCAICRISWCAGAESDYGYWGQGTQVTVSS
notes: C-term myc-His6 tag
B19: 22B12/1-124 (VHH)
VHH: EVQLVESGGGLVQAGGSLRLSCAASGRTFSSYAMAWFRQAPGKEREFVAGINKSGGITHSADSVKGRFTISRDNAKNTVYLQMNSLKPEDTAVYYCAADAYTVIATLPHEYDYWGQGTQVTVSS
notes: C-term myc-His6 tag
B20: 13G74/1-125 (VHH)
VHH: EVQLVESGGGLVQAGGSLRLSCATSGRTFSTYASMGWFRQTPGKEREFVAAITSSGSTNYADSVKGRFTISRDNAKNTVYLQMNSLKPEDTAVYYCGARVNYAAYSRLEHDYHYWGQGTQVTVSS
notes: C-term myc-His6 tag
B21: 11A22/1-122 (VHH)
VHH: EVQLVESGGGLVQAGGSLRLSCAASGRTFSSYAMAWFRQAPGTEREFIAGIRWSDGSTYYADSVKGRFTISRDNAKNTVYLQMNSLKPEDTAVYYCAADFYVSTLAHEYDYWGQGTQVTVSS
notes: C-term myc-His6 tag
B22: 12D44/1-122 (VHH)
VHH: B21 VHH with E1K, D73A, S85G
notes: C-term myc-His6 tag
B23: 12E11/1-122 (VHH)
VHH: B21 VHH with T43K, I48V, A49G, N77I
notes: C-term myc-His6 tag
B24: 13G41/1-121 (VHH)
VHH: EVQLVESGGGLVQPGGSLTLSCVGSGRRFSADVMGWYRQAPGKQREFVASISSGSAINYADSVKGRFTVSRDNAQNTVYLQMNSLKIEDTGVYYCNARRIVNVEGAYRDYWGQGTQVTVSS
notes: C-term myc-His6 tag
B25: 47G11 (VHH)
VHH: EVQLVESGGGLVQPGGSLRLSCAASGRIFYPMGWFRQAPGKEREFVAAIGSGDIITYYADSVKGRFTISRDNAKNTVYLQMNSLKPEDTAVYYCASSRDYSRSRDPTSYDRWGQGTQVTVSS
notes: C-term myc-His6 tag
B26: 11B42/1-123 (VHH)
VHH: EVQLVESGGGLVQAGDSLRLSCAASGFTFSNHIMGWFRQAPGKERELIAHITWNGGSTYYADSVKGRFAISRDNALNTVYLQMNSLKPEDTAVYYCAARPSYSTNNVKSYRYWGQGTQVTVSS
notes: C-term myc-His6 tag
B27: 14H61/1-122 (VHH)
VHH: EVQLVESGGGLVQAGGSLRLSCAASGRTFSRFAMGWFRQAPGKEREFVAAVRWSDDYTYYADSVKGRFTISRDNAKNTVYLQMNSLSPEDTAVYYCAADEILATLPHEYDYWGQGTQVTVSS
notes: C-term myc-His6 tag
B28: 11A71A/1-116 (VHH)
VHH: EVQLVESGGGLVQPGGSLRLSCAASGNIDGIITMGWYRQRPGKPREWVGTINSGGDTNYAGSVKGRFTIARDDAKNTMYLQMNGMKPEDTAVYYCKMNRAGIYEYWGQGTQVTVSS
notes: C-term myc-His6 tag
B29: 17D7 (VHH)
VHH: EVQLVESGGGLVQPGGSLRLSCAASGFTLDYCAIGWFRQAPGKEREGVSCISSSDGSTYYADSVKGRFTISRDNAKNTVYLQMNSLKPEDTAVYYCATDRGSGTCYADFGSWGQGTQVTVSS
notes: C-term myc-His6 tag
B30: 17G11 (VHH)
VHH: EVQLVESGGGLVQAGGSLRLSCAASGSTFSINRWGWYRQAPGKQRELVAAIDDGGNTEYSDFVNGRFTISRDNPETAVHLQMNSLKLEDTAVYYCNAKQLPYLQNFWGQGTQVTVSS
notes: C-term myc-His6 tag
B31: 13G101/1-123 (VHH)
VHH: EVQLVESGGGLVQPGDSLRLSCSASEGTLSRSRVAWFRQAPGKEREFVTVISGVGTSYADSVKGRFTISRDDAKNTVYLQMNSLKAEDTAIYYCAADFRSTWLSSSGSSYTYWGQGTQVTVSS
notes: C-term myc-His6 tag
B32: 13G111/1-123 (VHH)
VHH: EVQLVESGGGLVQAGGSLRLSCAASGRTFSSYAMGWFRQAPGKERAFVAAIRWSGGNTYYADSVKGRFTISRDNAKNTVYLQMNSLKPEDTAVYYCAADTFTLSTLSHEYDYWGQGTQVTVSS
notes: C-term myc-His6 tag
B33: 13E111/1-124 (VHH)
VHH: EVQLVESGGGLVQAGSSLRLSCALSGRTFSDYAIGWFRQAPGKEREFVAAISGWSGGTTNYADSVKGRFTISRDNGKNTVDLRMNSLKPEDTAVYYCAARPAVVHTRKESYPYWGQGTQVTVSS
notes: C-term myc-His6 tag
B34: 14H12/1-125 (VHH)
VHH: EVQLVESGGGLVQAGGSLRLSCIASERTFSSAGVGWFRQAPGKERDFVAAISWNGVTIYYADSVKGRFTISRDNAKNTVYLQMNSLKPEDTAVYYCAARINYSVLTTTSSSYHYWGQGTQVTVSS
notes: C-term myc-His6 tag
B35: 11A111/1-126 (VHH)
VHH: EVQLVESGGGLVQAGGSLGLSCAAAGRTFSSSLMGWFRQAPGKEREFVAAITDNGGSTYYADSVKGRFTISRDNAKNSVYLQMNSLKPEDTAIYYCAARRSGYYSLSTSPHQYAYWGQGTQVTVSS
notes: C-term myc-His6 tag

biological target: T1, recombinant human ErbB2/Fc chimera (human, UniProt P04626 23-652); test: ELISA, coated ErbB2/Fc
T1 construct: bought from R&D Systems; also called rhErbB2-Fc; rhErb2-Fc; Fc part of the bought chimera not given; not described

Binder | binding result
B1 | binds
B2 | binds
B3 | binds
B4 | binds
B5 | binds
B6 | binds
B7 | binds
B8 | binds
B9 | binds
B10 | binds
B11 | binds
B12 | binds
B13 | binds
B14 | binds
B15 | binds
B16 | binds
B17 | binds
B18 | binds

Binder | binding result
B19 | binds
B20 | binds
B21 | binds
B22 | binds
B23 | binds
B24 | binds
B25 | binds
B26 | binds
B27 | binds
B28 | binds
B29 | binds
B30 | binds
B31 | binds
B32 | binds
B33 | binds
B34 | binds
B35 | binds

Source: patent publication US20150232562A1 (Ablynx, published 2015)
